From article PMC6526958

B1: membrane-bound CD73 (MDA-MB-231 membrane preparation) (Homo sapiens) (protein)
chain: WELTILHTNDVHSRLEQTSEDSSKCVNASRCMGGVARLFTKVQQIRRAEPNVLLLDAGDQYQGTIWFTVYKGAEVAHFMNALRYDAMALGNHEFDNGVEGLIEPLLKEAKFPILSANIKAKGPLASQISGLYLPYKVLPVGDEVVGIVGYTSKETPFLSNPGTNLVFEDEITALQPEVDKLKTLNVNKIIALGHSGFEMDKLIAQKVRGVDVVVGGHSNTFLYTGNPPSKEVPAGKYPFIVTSDDGRKVPVVQAYAFGKYLGYLKIEFDERGNVISSHGNPILLNSSIPEDPSIKADINKWRIKLDNYSTQELGKTIVYLDGSSQSCRFRECNMGNLICDAMINNNLRHTDEMFWNHVSMCILNGGGIRSPIDERNNGTITWENLAAVLPFGGTFDLVQLKGSTLKKAFEHSVHRYGQSTGEFLQVGGIHVVYDLSRKPGDRVVKLDVLCTKCRVPSYDPLKMDEVYKVILPNFLANGGDGFQMIKDELLRHDSGDQDINVVSTYISKMKVIYPAVEGRIKFSTGSHCHGSFSLIFLSLWAVIFVLYQ
B2: recombinant soluble human CD73 (Homo sapiens) (protein)
chain: ELTILHTNDVHSRLEQTSEDSSKCVNASRCMGGVARLFTKVQQIRRAEPNVLLLDAGDQYQGTIWFTVYKGAEVAHFMNALRYDAMALGNHEFDNGVEGLIEPLLKEAKFPILSANIKAKGPLASQISGLYLPYKVLPVGDEVVGIVGYTSKETPFLSNPGTNLVFEDEITALQPEVDKLKTLNVNKIIALGHSGFEMDKLIAQKVRGVDVVVGGHSNTFLYTGNPPSKEVPAGKYPFIVTSDDGRKVPVVQAYAFGKYLGYLKIEFDERGNVISSHGNPILLNSSIPEDPSIKADINKWRIKLDNYSTQELGKTIVYLDGSSQSCRFRECNMGNLICDAMINNNLRHTDEMFWNHVSMCILNGGGIRSPIDERNNGTITWENLAAVLPFGGTFDLVQLKGSTLKKAFEHSVHRYGQSTGEFLQVGGIHVVYDLSRKPGDRVVKLDVLCTKCRVPSYDPLKMDEVYKVILPNFLANGGDGFQMIKDELLRHDSGDQDINVVSTYISKMKVIYPAVEGRIKFS

What was measured:
[1] = substrate: Nc1ncnc2c1ncn2[C@@H]1O[C@H](COP(=O)(O)O)[C@@H](O)[C@H]1O; assay: radiometric CD73 assay, membrane preparations of MDA-MB-231 cells; format: biochemical, human; conditions: other: substrate AMP; membrane preparation; 37.0 °C
[2] = substrate: Nc1ncnc2c1ncn2[C@@H]1O[C@H](COP(=O)(O)O)[C@@H](O)[C@H]1O; assay: purified protein, by the assay type; format: biochemical, human; conditions: other: substrate AMP

Protein	Km [1] [µM]	Km [2] [µM]
B1	14.8 ± 2.1	–
B2	–	17.0 ± 2.1
